These results are taken from patent US20110118447A1.

First the molecules themselves.
B1: C5A (XPA23) VL D92E (antibody, V domains shown)
VH: EVQLLESGGGLVQPGGSLRLSCAASGFTFSKYFMFWVRQAPGKGLEWVSVISPSGGMTRYADSVKGRFTISRDNSKNTLYLQMNSLRAEDTAVYYCARVGYGGNSDYWGQGTLVTVSS
VL: DIQMTQSPSSVSASVGDRLTIICRASQDINRWLAWYQQTPGNAPKLLIHSATSLQSGVPSRFSGSGSGTDFTLTINSLQPEDFATYYCQQAESFPLTFGGGTKVEIK
B2: C5A (XPA23) VL L96T (antibody, V domains shown)
VH: B1 VH
VL: B1 VL with E92D, L96T
B3: C5A (XPA23) VL D28F (antibody, V domains shown)
VH: B1 VH
VL: B1 VL with D28F, E92D
B4: C5A (XPA23) VL D28G (antibody, V domains shown)
VH: B1 VH
VL: B1 VL with D28G, E92D
B5: C5A (XPA23) VL N30P (antibody, V domains shown)
VH: B1 VH
VL: B1 VL with N30P, E92D
B6: C5A (XPA23) VL N30A (antibody, V domains shown)
VH: B1 VH
VL: B1 VL with N30A, E92D
B7: C5A (XPA23) VL N30G (antibody, V domains shown)
VH: B1 VH
VL: B1 VL with N30G, E92D
B8: C5A (XPA23) VL L96H (antibody, V domains shown)
VH: B1 VH
VL: B1 VL with E92D, L96H
B9: C5A (XPA23) VL S93D (antibody, V domains shown)
VH: B1 VH
VL: B1 VL with E92D, S93D
B10: C5A (XPA23) VL Q27L (antibody, V domains shown)
VH: B1 VH
VL: B1 VL with Q27L, E92D
B11: C5A (XPA23) VL D28A (antibody, V domains shown)
VH: B1 VH
VL: B1 VL with D28A, E92D
B12: C5A (XPA23) VL D28V (antibody, V domains shown)
VH: B1 VH
VL: B1 VL with D28V, E92D
B13: C5A (XPA23) VL D92N (antibody, V domains shown)
VH: B1 VH
VL: B1 VL with E92N
B14: C5A (XPA23) VL D92S (antibody, V domains shown)
VH: B1 VH
VL: B1 VL with E92S
B15: C5A (XPA23) VL N30W (antibody, V domains shown)
VH: B1 VH
VL: B1 VL with N30W, E92D
B16: C5A (XPA23) VL S93R (antibody, V domains shown)
VH: B1 VH
VL: B1 VL with E92D, S93R
B17: C5A (XPA23) VL D28W (antibody, V domains shown)
VH: B1 VH
VL: B1 VL with D28W, E92D
B18: C5A (XPA23) VL Q27A (antibody, V domains shown)
VH: B1 VH
VL: B1 VL with Q27A, E92D
B19: C5A (XPA23) VL P95S (antibody, V domains shown)
VH: B1 VH
VL: B1 VL with E92D, P95S
B20: C5A (XPA23) VL P95D (antibody, V domains shown)
VH: B1 VH
VL: B1 VL with E92D, P95D
B21: C5A (XPA23) VL L96Q (antibody, V domains shown)
VH: B1 VH
VL: B1 VL with E92D, L96Q
B22: C5A (XPA23) VL S93Q (antibody, V domains shown)
VH: B1 VH
VL: B1 VL with E92D, S93Q
B23: C5A (XPA23) VL D28P (antibody, V domains shown)
VH: B1 VH
VL: B1 VL with D28P, E92D
B24: C5A (XPA23) VL N30F (antibody, V domains shown)
VH: B1 VH
VL: B1 VL with N30F, E92D
B25: C5A (XPA23) VL S93K (antibody, V domains shown)
VH: B1 VH
VL: B1 VL with E92D, S93K
B26: C5A (XPA23) VL N30L (antibody, V domains shown)
VH: B1 VH
VL: B1 VL with N30L, E92D
B27: C5A (XPA23) VL Q27F (antibody, V domains shown)
VH: B1 VH
VL: B1 VL with Q27F, E92D
B28: C5A (XPA23) VL S93H (antibody, V domains shown)
VH: B1 VH
VL: B1 VL with E92D, S93H
B29: C5A (XPA23) VL S93T (antibody, V domains shown)
VH: B1 VH
VL: B1 VL with E92D, S93T
B30: C5A (XPA23) VL S93Y (antibody, V domains shown)
VH: B1 VH
VL: B1 VL with E92D, S93Y
B31: C5A (XPA23) VL P95E (antibody, V domains shown)
VH: B1 VH
VL: B1 VL with E92D, P95E
B32: C5A (XPA23) VL S93N (antibody, V domains shown)
VH: B1 VH
VL: B1 VL with E92D, S93N
B33: C5A (XPA23) VL D92H (antibody, V domains shown)
VH: B1 VH
VL: B1 VL with E92H
B34: C5A (XPA23) VL L96N (antibody, V domains shown)
VH: B1 VH
VL: B1 VL with E92D, L96N
B35: C5A (XPA23) VL N30I (antibody, V domains shown)
VH: B1 VH
VL: B1 VL with N30I, E92D
B36: C5A (XPA23) VL D28L (antibody, V domains shown)
VH: B1 VH
VL: B1 VL with D28L, E92D
B37: C5A (XPA23) VL N30V (antibody, V domains shown)
VH: B1 VH
VL: B1 VL with N30V, E92D
B38: C5A (XPA23) VL D92Q (antibody, V domains shown)
VH: B1 VH
VL: B1 VL with E92Q
B39: C5A (XPA23) VL S93E (antibody, V domains shown)
VH: B1 VH
VL: B1 VL with E92D, S93E
B40: C5A (XPA23) VL L96S (antibody, V domains shown)
VH: B1 VH
VL: B1 VL with E92D, L96S
B41: C5A (XPA23) VL D92T (antibody, V domains shown)
VH: B1 VH
VL: B1 VL with E92T
B42: C5A (XPA23) VL D92K (antibody, V domains shown)
VH: B1 VH
VL: B1 VL with E92K
B43: C5A (XPA23) VL Q27I (antibody, V domains shown)
VH: B1 VH
VL: B1 VL with Q27I, E92D

Residue numbers refer to the chain shown, from its start. Numbers in names are those of the source.

The assay addresses binding partner of C5A (XPA23). As to the kind of experiment: Biacore K-off. (In general: SPR reads the build-up and loss of mass on a sensor chip optically.)
Consider B1, for which the fold difference in affinity vs original was found to be 0.99 fold.

As to B2, the fold difference in affinity vs original turned out to be 0.06 fold. Consider B3, for which the fold difference in affinity vs original amounted to 1.43 fold.

On to B4, for which the fold difference in affinity vs original worked out at 1.21 fold. As for B5, the fold difference in affinity vs original is 0.69 fold. For the molecule B6, the fold difference in affinity vs original was determined as 0.61 fold. With B7, the fold difference in affinity vs original was 0.71 fold. The result for B8 reads 0.07 fold; that for B9, 4.59 fold. For the molecule B10, the fold difference in affinity vs original is 0.83 fold.

B11: the fold difference in affinity vs original is 0.88 fold.

As for B12, the fold difference in affinity vs original stood at 0.85 fold. As to B13, the fold difference in affinity vs original was 0.67 fold. Regarding B14, the fold difference in affinity vs original was 6.59 fold. Turning to B15, the fold difference in affinity vs original stood at 1.06 fold.

For B16, the fold difference in affinity vs original stood at 0.91 fold.

With B17, the fold difference in affinity vs original is 3.81 fold. As to B18, the fold difference in affinity vs original was found to be 1.47 fold. For B19, the fold difference in affinity vs original worked out at 4.05 fold. Take B20: the fold difference in affinity vs original stood at 1.32 fold. With B21, the fold difference in affinity vs original stood at 0.21 fold. Consider B22, for which the fold difference in affinity vs original was 1.54 fold.

Regarding B23, the fold difference in affinity vs original was determined as 1.17 fold. With B24, the fold difference in affinity vs original worked out at 1.59 fold. On to B25, for which the fold difference in affinity vs original was determined as 0.86 fold. In the case of B26, the fold difference in affinity vs original was determined as 0.68 fold. Consider B27, for which the fold difference in affinity vs original stood at 2.96 fold. Consider B28, for which the fold difference in affinity vs original is 1.08 fold. Turning to B29, the fold difference in affinity vs original stood at 1.47 fold. Under B30 stands 1.45 fold.

For the molecule B31, the fold difference in affinity vs original stood at 0.88 fold.

Turning to B32, the fold difference in affinity vs original is 3.76 fold.

Consider B33, for which the fold difference in affinity vs original amounted to 0.63 fold. Consider B34, for which the fold difference in affinity vs original is 0.06 fold. As to B35, the fold difference in affinity vs original was found to be 0.65 fold. Regarding B36, the fold difference in affinity vs original was determined as 9.64 fold. Turning to B37, the fold difference in affinity vs original is 0.89 fold. As for B38, the fold difference in affinity vs original is 0.56 fold. As to B39, the fold difference in affinity vs original was 3.71 fold. The result for B40 reads 0.23 fold. Under B41 stands 0.34 fold. Consider B42, for which the fold difference in affinity vs original worked out at 0.23 fold. On to B43, for which the fold difference in affinity vs original came to 0.82 fold.
